Laboratory results reported in article PMC2931692.

Biological target: soluble HA of A/Aichi/2/68 (H3N2) modified at the C-terminus with the GCN4pII trimerization repeat (influenza A virus A/Aichi/2/68 (H3N2) | Saccharomyces cerevisiae) (UniProt P03437)
Test: cross-linking

soluble HA of A/Aichi/2/68 (H3N2) modified at the C-terminus with the GCN4pII trimerization repeat (from UniProt P03437 17-528)
stoichiometry N: 3
